Measurements taken from patent publication US12653899B2, “Multi-targeted, tunable, sustained delivery of payloads to charged avascular tissues” (Massachusetts Institute of Technology, priority 2019, dated 2026).

Experiments:
[1] = tested on: human ankle cartilage explants; experiment: Quantitative uptake of fusion proteins in human ankle cartilage (uptake ratio); assay type: in vitro ADME; settings: 1 μM in PBS + 1% BSA
Description: Cartilage explants were incubated in 250 μL of 1 μM solutions of different fusion proteins dissolved in 1×PBS+1% BSA for either 36 hours (FIG. 4A) or for 108 hours (FIG. 4B) (4.5 days). A group with free +9 GFP dissolved in 1×PBS+1% BSA (1 μM concentration) was included as a control for each of these two time points. An additional untreated control was included in these experiments. Cartilage explants were incubated in plain 1×PBS+1% BSA to account for and to correct for any autofluorescence effects. At the end of the incubation in the 1×PBS+1% BSA: The explants were transferred to a 10×PBS+1% BSA bath for 48 hours. The purpose of this was to desorb the GFPs taken up by the explants. The amount of GFPs left behind in the […] bath was quantified through fluorescence measurements. The desorption step in 10×PBS+1% BSA was followed by a second desorption step using fresh 10×PBS+1% BSA just to ensure any GFPs left in the explant after the 1st desorption come out. At the end of each desorption step, the fluorescence of the 10×PBS+1% BSA bath was measured. After the 2nd desorption step, the explants were digested in Proteinase K and their fluorescence was measured. The uptake ratio for the 36 hour and 108 hour experiments was calculated as (FIG. 4C): […]
Cartilage explants that had been equilibrated in culture medium post-harvest were transferred to sterile PBS and allowed to equilibrate for 1 hour before the start of the experiments. Sterile PBS solutions containing 1% bovine serum albumin (BSA) were prepared. Following this, 1 μM solutions of (+9GFP), (+9GFP)-(GGGGS)4-(IGF-1) (SEQ ID NO: 7), (+9GFP)-(EAAAK)3-(IGF-1) (SEQ ID NO: 8) and (+9GFP)-(GGGGS)3-(IGF-1) (SEQ ID NO: 9) were prepared. The BSA was included in the PBS to minimize loss of GFPs in the solution caused by non-specific binding to the plasticware. […] In contrast, use of polypropylene with 1% BSA enabled complete recovery of fluorescence.
At the end of the incubation period, cartilage explants were washed with PBS and transferred to a solution of 10×PBS+1% BSA for desorption. At the same time, the fluorescence of the absorption bath was measured using a plate reader (Synergy H1, Biotek Instruments Inc.) (excitation: 485 nm, emission: 528 nm). […] At the end of the desorption in 10×PBS+1% BSA, cartilage explants were weighed, and the fluorescence of the desorption bath was measured. This fluorescence measurement was used with a standard curve and the explant wet weights to calculate the concentration of GFP inside cartilage explants (mol/mg wet weight). The uptake ratio was calculated as the ratio of GFP concentration inside cartilage (mol/mg wet weight) to the final absorption bath concentration (mol/mL).

[2] = tested on: human ankle cartilage explants treated with IL-1β; experiment: Cumulative sGAG loss and final sGAG content (DMMB) in IL-1β challenge, human ankle cartilage; assay type: cell-based; settings: 100 pg/ml IL-1β alone; 10-day time point
Description: (§1) Preliminary dose response experiments were performed to test the effects of human IL-1β (PeproTech, Rocky Hill, NJ) on human ankle cartilage. Ankle cartilage explants from two different donors (equilibrated in culture medium post-harvest) were cultured in serum-free low glucose medium (same composition as equilibration medium) and treated with continuous IL-1β doses ranging from 10 pg/ml to 1 ng/ml for 8 days. The experiments also included groups of explants that were treated with 300 ng/ml free IGF-1 at each dose level of IL-1β. Based on the results of these experiments, 100 pg/ml IL-1β was chosen as the dose used for the fusion protein dose response experiments. In these experiments, ankle and knee cartilage explants (equilibrated in culture medium post-harvest) were treated continuously with IL-1β and received single doses of fusion proteins (ranging from 39.2 nM to 2 μM) at the start of the experiments. Media changes with IL-1β but without fusion proteins were performed once every 2 to 3 days. An untreated control group, a control with continuous IL-1β alone, and a control with IL-1β combined with continuous free IGF-1 (300 ng/ml or 39.2 nM) were included. Experiments were terminated at 7-day and 10-day timepoints, and the sGAG biosynthesis rate, metabolic rate, sGAG loss to culture medium and sGAG content of the explants were measured.
The metabolic rate of cartilage explants was measured using the Alamar Blue assay (ThermoFisher). Cartilage explants were incubated for 3 hours in a 1× solution of Alamar Blue dissolved in culture medium. At the end of the incubation period, the absorbance of the medium at 570 nm and 600 nm was measured using a microplate reader (Synergy H1 Hybrid Multi-Mode Microplate Reader, BioTek). These readings were used to calculate the percentage reduction of Alamar Blue, which is directly proportional to the explant metabolic rate. These values were first normalized by individual explant weights. Following this, the weight-normalized readings for the treatment groups were normalized by the weight-normalized mean value for the untreated controls. To measure the chondrocyte biosynthesis rate of sulfated glycosaminoglycans (sGAGs), cartilage explants were cultured in the presence of 10 μCi/mL 35S-sulfate radiolabel during the final two days of each experiment. […] To calculate the cumulative loss of GAGs from the explants, the amount of sGAG lost to the medium and that left behind in the explants at the end of the experiment were measured using the dimethylene blue (DMMB) dye binding assay (Farndale et al., Biochim Biophys Acta. 883(2):173-177 (1986)).

[3] = tested on: human ankle cartilage explants treated with IL-1β; experiment: IL-1β cytokine challenge model, sGAG biosynthesis rate in human ankle cartilage explants; assay type: cell-based; settings: 100 pg/ml (Experiment 5A also 500 pg/ml and 1000 pg/ml) human IL-1β alone; days 6-8
Description: Cartilage was harvested from the ankles of a donor (Collins Grade 1) and a donor (Collins Grade 1). Cartilage explants were equilibrated in culture media for 2 days after harvest. […] These were cut down to 1 mm thickness and allowed to equilibrate for a further 2 days before experiments were set up. Human IL-1β was used to induce osteoarthritis-like changes in cartilage. Experiments were set up to identify IL-1β doses at which 40 nM of free IGF-1 can rescue the IL-1β induced biosynthesis loss in cartilage. A dose response experiment in which single doses of (+9GFP)-(GGGGS)4-(IGF-1) (SEQ ID NO: 7) and (+9GFP)-(EAAAK)3-(IGF-1) (SEQ ID NO: 8) were added along with 100 pg/ml human IL-1β was also set up.
Experimental groups (N=8 to 10 cartilage explants in each group): Untreated control (Ctrl in FIG. 6A and FIG. 6B), 10 pg/mL human IL-1β (10 pg/ml IL-1b in FIG. 6A and FIG. 6B), 10 pg/mL human IL-1β+40 nM IGF-1 (10 pg/ml IL-1b+40 nM IGF-1 in FIG. 6A and FIG. 6B), 100 pg/mL human IL-1β (100 pg/ml IL-1b in FIG. 6A and FIG. 6B), 100 pg/mL human IL-1β+40 nM IGF-1 (100 pg/ml IL-1b+40 nM IGF-1 in FIG. 6A and FIG. 6B), 500 pg/mL human IL-1β (500 pg/ml IL-1b in FIG. 6A and […]), 500 pg/mL human IL-1β+40 nM IGF-1 (500 pg/ml IL-1b+40 nM IGF-1 in FIG. 6A and FIG. 6B), 1000 pg/mL human IL-1β (1 ng/ml IL-1b in FIG. 6A and FIG. 6B), 1000 pg/mL human IL-1β+40 nM IGF-1 (1 ng/ml IL-1b+40 nM IGF-1 in FIG. 6A and FIG. 6B). Media changes were performed every 2 days and the experiment was terminated after 8 days.
Chondrocyte biosynthesis rate (primarily aggrecan synthesis) was measured between days 6 and 8 of the experiment using a 35S-sulfate radiolabel. Statistics: 1-way ANOVA with post-hoc Tukey's HSD test.
This experiment was set up with cartilage explants from the donor ankle. Experimental groups (N=8 to 10 cartilage explants in each group): Untreated control (Ctrl in FIG. 6C), Continuous human IL-1β control (100 pg/ml dose added with every media change) (IL-1b in FIG. 6C), Continuous human IL-1β+continuous free IGF-1 control (100 pg/ml human IL-1β and 40 nM free IGF-1 dose added with every media change) (IL-1b+IGF1 FIG. 6C), Continuous human IL-1β+(+9GFP)-(GGGGS)4-(IGF-1) (SEQ ID NO: 7) 500 nM single dose (100 pg/ml human IL-1β added with every media change; Single 500 nM fusion protein dose added on Day 0) (IL-1b+0.5 μM Flex-1 in FIG. 6C), Continuous human IL-1β+(+9GFP)-(GGGGS)4-(IGF-1) (SEQ ID NO: 7) 1 μM single dose (100 pg/ml human IL-1β added with every media change; Single 1 μM fusion protein dose added on Day 0) (IL-1b+1 μM Flex-1 in FIG. 6C), Continuous human IL-1β+(+9GFP)-(EAAAK)3-(IGF-1) (SEQ ID NO: 8) 500 nM single dose (100 pg/ml human IL-1β added with every media change; Single 500 nM fusion protein dose added on Day 0), Continuous human IL-1β+(+9GFP)-(EAAAK)3-(IGF-1) (SEQ ID NO: 8) 1 μM single dose (100 pg/ml human IL-1β added with every media change; Single 1 μM fusion protein dose added on Day 0) (IL-1b+1 μM Rig-1 in FIG. 6C).
as §1, with “Media changes with IL-1β but without fusion proteins were performed once every 2 to 3 days. An untreated control group, a control with continuous IL-1β alone, and a control with IL-1β combined with continuous free IGF-1 (300 ng/ml or 39.2 nM) were included. Experiments were terminated at 7-day and 10-day timepoints, and the sGAG biosynthesis rate, metabolic rate, sGAG loss to culture medium and sGAG content of the explants were measured.” left out

Q: With “(+9GFP)-(GGGGS)3-(IGF-1): fusion protein of +9 GFP and human IGF-1 with flexible (GGGGS)3 linker, SEQ ID NO: 9” as the substance, how does the “Uptake ratio (Mean)” value ([1]; 36 hr) read?
A: Its value is 13.1.

Q: And the “Uptake ratio (Mean)” value ([1]; 108 hr)?
A: The value was 24.2.

Q: Which results are given for “IL-1β: human IL-1β (PeproTech), cytokine used to induce osteoarthritis-like biosynthesis loss in cartilage explants [reference compound]”?
A: cumulative sGAG loss compared to the untreated control [2]: higher cumulative sGAG loss; aggrecan biosynthesis compared to the untreated control [3]: significant reduction
